We go through two molecules from paper doi:10.1101/2020.07.29.223594.

For data set [1], the target named is T1, APOBEC2 (Mus musculus, UniProt Q9WV35 1-224).
T1 sequence: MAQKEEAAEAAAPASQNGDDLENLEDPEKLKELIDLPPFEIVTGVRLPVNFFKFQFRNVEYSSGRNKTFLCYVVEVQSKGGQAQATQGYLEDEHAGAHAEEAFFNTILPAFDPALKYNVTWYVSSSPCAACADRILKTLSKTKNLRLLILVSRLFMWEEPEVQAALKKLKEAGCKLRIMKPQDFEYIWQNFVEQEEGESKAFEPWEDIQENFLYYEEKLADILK
Briefly: MST.

The target of a further data set is SP1 (Homo sapiens, UniProt P08047 2-785). Briefly: EMSA. Background: A gel shift assay detects complexes by their altered migration in electrophoresis.
SP1, sequence (P08047 2-785): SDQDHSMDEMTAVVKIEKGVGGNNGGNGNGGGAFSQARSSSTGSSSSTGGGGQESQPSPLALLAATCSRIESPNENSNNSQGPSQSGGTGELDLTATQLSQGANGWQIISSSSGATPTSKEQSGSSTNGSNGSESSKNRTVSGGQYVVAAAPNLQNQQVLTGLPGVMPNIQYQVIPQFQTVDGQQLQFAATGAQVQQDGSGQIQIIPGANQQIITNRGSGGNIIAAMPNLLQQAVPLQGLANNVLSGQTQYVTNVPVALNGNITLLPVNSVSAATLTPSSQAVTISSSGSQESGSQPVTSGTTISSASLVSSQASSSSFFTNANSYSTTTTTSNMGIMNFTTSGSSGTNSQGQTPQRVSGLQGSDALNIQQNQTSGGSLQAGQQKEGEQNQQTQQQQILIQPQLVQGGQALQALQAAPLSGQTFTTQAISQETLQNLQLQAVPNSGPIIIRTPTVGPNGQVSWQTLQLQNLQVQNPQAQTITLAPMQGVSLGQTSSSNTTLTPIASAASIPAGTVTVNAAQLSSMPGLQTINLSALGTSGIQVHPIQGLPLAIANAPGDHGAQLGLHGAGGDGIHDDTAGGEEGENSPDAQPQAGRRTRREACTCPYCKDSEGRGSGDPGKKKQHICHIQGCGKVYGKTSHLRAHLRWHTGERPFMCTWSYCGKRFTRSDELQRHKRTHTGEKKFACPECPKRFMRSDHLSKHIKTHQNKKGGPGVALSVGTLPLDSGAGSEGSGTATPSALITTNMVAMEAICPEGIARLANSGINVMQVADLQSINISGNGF
Data set [2] addresses T1, APOBEC2. Briefly: MST. The source holds these as a separate data set.

B1: SP/KLF motif dsDNA (dsDNA)
DNA 1: GGCGGCGCGGCCCCGCCCCCTCCTCCGGC
DNA 2: GCCGGAGGAGGGGGCGGGGCCGCGCCGCC
B1 yielded a dissociation constant (Kd) with APOBEC2 [1] of 709 ± 186 nM. In addition, in the data set with SP1, the binding result is on record as “binds”.

B2: A-tract motif dsDNA (dsDNA)
DNA 1: TCTCAAGAAAAAAAAAAAAAGAC
DNA 2: GTCTTTTTTTTTTTTTCTTGAGA
In the case of B2, the binding result in the data set with APOBEC2 [2] is reported as “no binding”.

Broadly, the Kd is the free concentration of one partner at which half of the binding sites on the other are occupied at equilibrium, for simple one-to-one binding.
